The experiment addresses α2β1 integrin (human (endogenous in HT1080)) (UniProt P17301).
Chain of UniProt P17301 (P17301 30-1181, chain 1 of 2): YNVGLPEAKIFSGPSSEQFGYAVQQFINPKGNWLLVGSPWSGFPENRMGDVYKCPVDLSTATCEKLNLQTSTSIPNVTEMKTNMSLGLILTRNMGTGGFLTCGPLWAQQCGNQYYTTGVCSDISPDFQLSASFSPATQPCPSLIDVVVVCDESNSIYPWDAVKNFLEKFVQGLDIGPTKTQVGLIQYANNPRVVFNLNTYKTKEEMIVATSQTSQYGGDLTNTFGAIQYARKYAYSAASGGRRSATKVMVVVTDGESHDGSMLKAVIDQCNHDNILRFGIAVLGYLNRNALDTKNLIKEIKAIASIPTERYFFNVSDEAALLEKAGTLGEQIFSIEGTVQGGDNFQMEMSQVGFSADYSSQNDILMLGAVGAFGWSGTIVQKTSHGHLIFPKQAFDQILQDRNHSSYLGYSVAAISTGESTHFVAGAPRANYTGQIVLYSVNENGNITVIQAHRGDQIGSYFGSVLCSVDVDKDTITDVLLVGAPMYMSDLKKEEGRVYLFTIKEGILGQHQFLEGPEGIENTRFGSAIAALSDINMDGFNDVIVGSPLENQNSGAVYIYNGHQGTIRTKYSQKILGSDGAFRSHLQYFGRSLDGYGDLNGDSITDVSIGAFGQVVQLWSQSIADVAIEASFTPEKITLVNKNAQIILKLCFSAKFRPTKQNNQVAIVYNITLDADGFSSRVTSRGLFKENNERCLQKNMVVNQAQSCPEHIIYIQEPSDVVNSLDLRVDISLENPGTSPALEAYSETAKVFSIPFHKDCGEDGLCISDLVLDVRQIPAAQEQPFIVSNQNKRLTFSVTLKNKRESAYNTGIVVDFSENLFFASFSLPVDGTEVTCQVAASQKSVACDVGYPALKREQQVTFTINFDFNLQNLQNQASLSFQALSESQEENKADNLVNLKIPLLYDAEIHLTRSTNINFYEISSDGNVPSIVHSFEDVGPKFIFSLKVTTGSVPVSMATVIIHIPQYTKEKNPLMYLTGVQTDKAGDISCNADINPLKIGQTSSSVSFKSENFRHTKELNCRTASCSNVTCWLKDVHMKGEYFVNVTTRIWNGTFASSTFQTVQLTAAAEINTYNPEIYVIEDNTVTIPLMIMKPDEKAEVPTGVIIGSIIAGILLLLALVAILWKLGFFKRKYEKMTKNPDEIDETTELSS
Chain of UniProt P17301 (P05556 21-798, chain 2 of 2, further chain): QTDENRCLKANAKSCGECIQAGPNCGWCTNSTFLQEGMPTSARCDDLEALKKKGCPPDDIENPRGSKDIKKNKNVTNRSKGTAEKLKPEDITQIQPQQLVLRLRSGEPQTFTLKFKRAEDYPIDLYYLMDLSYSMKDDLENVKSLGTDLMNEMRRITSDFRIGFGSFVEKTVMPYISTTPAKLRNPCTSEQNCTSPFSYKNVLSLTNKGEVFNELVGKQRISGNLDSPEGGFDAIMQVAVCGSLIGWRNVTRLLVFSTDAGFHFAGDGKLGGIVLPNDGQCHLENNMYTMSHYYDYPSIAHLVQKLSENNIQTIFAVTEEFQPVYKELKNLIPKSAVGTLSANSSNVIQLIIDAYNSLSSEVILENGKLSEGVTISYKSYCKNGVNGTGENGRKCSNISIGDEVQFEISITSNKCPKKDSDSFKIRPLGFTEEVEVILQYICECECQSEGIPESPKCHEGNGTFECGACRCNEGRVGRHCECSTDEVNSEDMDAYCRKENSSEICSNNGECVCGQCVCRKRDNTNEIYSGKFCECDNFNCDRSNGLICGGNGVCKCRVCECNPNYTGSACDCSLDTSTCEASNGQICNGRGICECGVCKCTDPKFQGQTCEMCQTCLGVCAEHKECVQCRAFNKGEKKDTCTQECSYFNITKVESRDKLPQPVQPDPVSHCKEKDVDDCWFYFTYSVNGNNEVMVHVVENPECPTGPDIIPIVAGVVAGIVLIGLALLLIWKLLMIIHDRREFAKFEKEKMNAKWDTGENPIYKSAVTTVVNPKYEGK

On to GFOGER peptide, for which the adhesion of HT1080 cells pre-incubated with 10 μg/mL mAb13 (anti-β1) on Fmoc-FF/S/GFOGER hydrogel amounted to 23%.
As for “Rat Tail Collagen (from UniProt P02454 152-1207; P02466 86-1125) (natural protein)”, the adhesion of HT1080 cells pre-incubated with 10 μg/mL mAb13 (anti-β1) on RTC-modified hydrogel worked out at 15%.

These data come from publication PMC9140497.
